From patent US7291458B2, “Leptin-mediated gene-induction” (Vlaams Interuniversitair Instituut Voor Biotechnologie VZW, priority 1998, dated 2007)

Test system: PC12-LR8 cells
Experiment: Northern blot analysis of gene induction in non-differentiated PC12-LR8 cells
Type: cell-based, rat
Method: PC12-LR8 cells were treated with leptin (L), forskolin (F), or a combination of both (F/L) for the indicated length of time. Hybridization with the mouse b-actin probe was used as a control. NI stands for non-induced control cells. Sizes of transcripts are shown on the right. Exposure times to Biomax MS films were 5.5 days for LIP-I and LIP-II, and 1 day for the corresponding b-actin blot, all at −80° C.
FIG. 6A. Induction patterns of Reg I, HIP-I and peripherin after a 12 hours stimulation with forskolin (F), leptin (L), forskolin plus leptin (F/L), hyper-IL-6 (H) or forskolin plus hyper-IL-6 (F/H). Untreated cells were analyzed as a control (NI). Exposure times to BioMax MS films for Reg I, HIP-I and b-actin were 4 days, 5 days and 3 hours, respectively; and in a separate experiment for peripherin and b-actin, 16 hours and 2 days.
FIG. 6B Induction patterns of PAP I, PAP III, MT-II, Fnk, MRF-1, SOCS-3 and STAT-3 after stimulation with leptin (L) or hyper-IL-6 (H), compared to non-treated control cells (NI). In all cases stimulation was for 12 hours, with the exception of PAP III where stimulation was for 24 hours. b-actin hybridization patterns are shown as control. Exposure times to BioMax MS films at −80° C. were 16 hours for PAP I and 1 hour for b-actin; 4 days for PAP III and 1 hour for b-actin; 3 days for MT-II and Fnk, and2 days for b-actin; 3 days for MRF-1, 2.5 days for SOCS-3 and2 days for b-actin; and 16 hours for STAT-3 and 3 hours for b-actin.
FIG. 8A. Northern blot analysis of the immediate early response genes. PC12-LR8 cells were left untreated (NI: non induced), or were treated with forskolin (F), leptin (L) or a combination of both (F/L) for the indicated time points. Exposure times to BioMax MS films for the different transcripts were Fnk: 6 days, MT-II: 5 days, MRF-1: 6 days, SOCS-3: 14 hours, STAT-3: 14 hours, b-actin: 5 hours.
FIG. 8B. Immediate early response gene-set: early kinetics. PC12-LR8 cells were treated with leptin alone (L) or with a combination of leptin and forskolin (F/L) for the indicated length of time. Exposure time to BioMax MS films were: Fnk: 3 days, MT-II: 3 days, MRF-1: 3 days, SOCS-3: 2.5 days, STAT-3: 2.5 days, b-actin: 1 hour.
FIG. 8C. Northern blot analysis of the late target genes. PC12-LR8 cells were left untreated (NI), or were treated with forskolin (F), leptin (L) or a combination of both (F/L) for the indicated length of time. Exposure times to BioMax MS films were: Ann VIII: 6 days, PAP I: 14 hours, Squalene Epoxidase: 5 days, UGT: 5 days, b-actin: 14 hours.
PC12 cells were cultured in RPMI 1640 medium with glutamax-I (GibcoBRL) containing 10% heat-inactivated foetal calf serum (iFCS) and gentamycin (50 μg/ml). The cells were treated with medium alone or supplemented with 100 ng/ml of mouse leptin (R&D Systems), with forskolin (Sigma) at a concentration of 10 μM or with a combination both, unless otherwise indicated.
Total RNA was prepared from PC12 cells using RNeasy™ method (Qiagen). RNA (10 μg) was separated on a 1.5% agarose,6% formaldehyde gel, transferred to a nylon membrane (Zeta-Probe GT Genomic, Bio-Rad), and cross-linked using UV radiation. The filters were hybridized for one hour at 68° C. in ExpressHyb™ solution (Clontech) with [^32P]dCTP-labeled DNA-probes and washed 3 times with 2×SSC, 0.05% SDS at room temperature and twice in 0.1×SSC, 0.1% SDS at 50° C. Autoradiographs were obtained by exposing the blots to BioMax MS film (Kodak) with intensifying screens at −70° C. All Northern blots were normalized by hybridization using a b-actin probe.

B1: leptin: mouse leptin (R&D Systems), ob gene product, used on PC12 cells at 100 ng/ml (protein)
chain: VPIQKVQDDTKTLIKTIVTRINDISHTQSVSAKQRVTGLDFIPGLHPILSLSKMDQTLAVYQQVLTSLPSQNVLQIANDLENLRDLLHLLAFSKSCSLPQTSGLQKPESLDGVLEASLYSTEVVALSRLQGSLQDILQQLDVSPEC
2 hours post stimulation
  kinetics of synthesis of SOCS-3 mRNA: rapid decline
Annexin VIII, Squalene epoxidase
  time of optimal mRNA levels post induction: over 96 hours
Fnk, MT-II, MRF-1, STAT-3, SOCS-3, leptin treatment
  time of induction of immediate early response genes: ≤ 4 h
PAP I, UGT
  time of optimal mRNA levels post induction: 22 h
PAP I, UGT, Ann VIII, squalene epoxidase, leptin treatment
  time of induction of late activated target genes after stimulus: ≥ 6 h
RDA hyper-IL-6 versus leptin
  induction of HIP-I and Reg transcripts: not induced
SOCS-3
  time of optimal stimulation post induction: 30 min
STAT-3
  time of optimal stimulation post induction: 480 min
Without forskolin
  induction of PAP I and PAP III transcripts: requires forskolin co-stimulation
